Experimental data as given in patent US20100015126A1, “Methods of Binding of Cross-Beta Structures By Chaperones” (priority 2006, published 2010).

What was measured:
human BiP [1] = molecular target: T1, human BiP (Homo sapiens, UniProt P11021); test: ELISA: binding of BiP-FLAG-His to immobilized (misfolded) protein ligands; conditions: ligands coated at 5 μg/ml; 6BB peptides and oxLDL 50 μg/ml
T1 construct: The human BiP gene except the signal peptide encoding region was obtained from Geneart (Germany); linker […]; made in house; host or cells: HEK 293E cells, transient transfection, PABC674 vector; secreted into the medium
Protocol: Enzyme Linked Immunosorbent Assay for Testing of Chaperone Binding to Misfolded Proteins
(§1) Binding of chaperones to immobilized (misfolded) protein ligands was determined using an enzyme linked immuno sorbent assay (ELISA) approach. For this purpose 50 μl/well of potential ligands at indicated concentrations or coat buffer only for control and background measurement purposes, were coated overnight at 4° C. or coated for 1 h at room temperature, with motion, in 50 mM NaHCO3 pH 9.6 (coat buffer). In general, ligands were coated at 5 μg/ml, unless stated otherwise. For example, BiP binding peptides 6BB# and oxLDL were coated at 50 μg/ml. Native haemoglobin (Sigma-Aldrich, H7379), albumin, IgIV Gammagard and ovalbumin controls were prepared from lyophilized stocks. The controls were prepared by dissolving lyophilized proteins at 1 mg/ml in PBS upon resuspending by pipetting, followed by a 30 minutes period at the roller device, at room temperature. The protein solutions were centrifuged for 10 minutes at 16,000*g and diluted in coat buffer. After coating the plates were washed at least three times with 50 mM Tris-HCl pH 7.3, 150 mM NaCl, 0.1% v/v Tween20, and blocked with Blocking reagent (Roche Diagnostics, Almere, The Netherlands; 11112589001), for 1 h at room temperature, with motion. Plates were washed three times and incubated in triplicate with indicated chaperone dilution series, at 50 μl/well, for 1 h at room temperature, with constant motion. For HSP90, 5 mM DTT is incorporated in the binding buffer (PBS/0.1% Tween20) to avoid unwanted disulfide bond formation of the HSP90. Plates were washed three times and incubated with anti-FLAG antibody (mouse antibody, M2, peroxidase conjugate; Sigma, A-8592) for BiP-FLAG-His, anti-His-tag antibody (Mouse Monoclonal Antibody, Cat. No. 70796, Novagen [0.2 mg/ml]) for HSP60, a 1:1 mix of 500-fold diluted anti-HSP90beta antibodies (Stressgen, SPA-643 [mouse monoclonal IgM], SPA-646 [rabbit polyclonal]) for HSP90 and an anti-DnaK antibody (Stressgen, 023SPA-880D [mouse monoclonal antibody]) for DnaK. After four wash cycles, secondary antibodies were added to the wells when required, 50 μl/well, for 45′ at room temperature, with motion. RAMPO and SWARPO were used at 3000 times dilution. […] In a second experiment with more immobilized misfolded proteins and controls, the detection of bound HSP90 with the mix of two anti-HSP90 antibodies was achieved by mixing 1:1500 SWARPO with 1:3000 RAMPO. After 5 washes with wash buffer followed by two washes with PBS, binding of antibodies was assessed. Bound anti-FLAG-PO, peroxidase-conjugated rabbit anti-mouse immunoglobulins (RAMPO, P0260, DAKOCytomation, Glostrup, Denmark) or peroxidase-coupled swine anti-rabbit immunoglobulins (SWARPO, P0217, DAKOCytomation) was visualized with tetramethylbenzidine (TMB, #45.01.20,/#45.014.01, Biosource, Nivelles, Belgium). The reaction was stopped after 5 minutes with 1% H2SO4 in H2O. Plates were read at 450 nm. Triplicates were averaged and standard deviations calculated. Background signals obtained with buffer-coated wells were subtracted (binding of primary antibody to empty wells), as well as background signals obtained with ligand-coated wells in which the chaperones were omitted (binding of primary and secondary antibody to coated ligands). Subsequently, sub-optimal concentrations of chaperones for binding to misfolded protein ligands are determined, and these concentrations are used for inhibition studies. […] We have previously identified that a sub-fraction of IgIV molecules has affinity for misfolded proteins comprising crossbeta structure (pending patent application). Moreover, we identified that the sub-fraction of IgIV molecules directly binds to crossbeta structure and/or crossbeta structure induced conformation (not shown; pending patent application). […]

human BiP [2] = molecular target: T1, human BiP; test: Competition ELISA: BiP binding to misfolded proteins under influence of crossbeta binding compounds; conditions: for Influence of Congo red on interaction of BiP with misfolded protein / Influence of ThS on interaction of BiP with misfolded protein / Influence of ThT on interaction of BiP with misfolded protein: fixed sub-optimal BiP concentration; for Influence of Congo red on interaction of BiP with misfolded protein: concentration series of Congo red; for Influence of ThS on interaction of BiP with misfolded protein: concentration series of ThS; for Influence of ThT on interaction of BiP with misfolded protein: concentration series of ThT
Protocol: Binding of chaperones to immobilized (misfolded) protein ligands was determined using an enzyme linked immuno sorbent assay (ELISA) approach. For this purpose 50 μl/well of potential ligands at indicated concentrations or coat buffer only for control and background measurement purposes, were coated overnight at 4° C. or coated for 1 h at room temperature, with motion, in 50 mM NaHCO3 pH 9.6 (coat buffer). In general, ligands were coated at 5 μg/ml, unless stated otherwise. For example, BiP binding peptides 6BB# and oxLDL were coated at 50 μg/ml. Native haemoglobin (Sigma-Aldrich, H7379), albumin, IgIV Gammagard and ovalbumin controls were prepared from lyophilized stocks. The controls were prepared by dissolving lyophilized proteins at 1 mg/ml in PBS upon resuspending by pipetting, followed by a 30 minutes period at the roller device, at room temperature. The protein solutions were centrifuged for 10 minutes at 16,000*g and diluted in coat buffer. After coating the plates were washed at least three times with 50 mM Tris-HCl pH 7.3, 150 mM NaCl, 0.1% v/v Tween20, and blocked with Blocking reagent (Roche Diagnostics, Almere, The Netherlands; 11112589001), for 1 h at room temperature, with motion. Plates were washed three times and incubated in triplicate with indicated chaperone dilution series, at 50 μl/well, for 1 h at room temperature, with constant motion. For HSP90, 5 mM DTT is incorporated in the binding buffer (PBS/0.1% Tween20) to avoid unwanted disulfide bond formation of the HSP90. […] After four wash cycles, secondary antibodies were added to the wells when required, 50 μl/well, for 45′ at room temperature, with motion. RAMPO and SWARPO were used at 3000 times dilution. […] In a second experiment with more immobilized misfolded proteins and controls, the detection of bound HSP90 with the mix of two anti-HSP90 antibodies was achieved by mixing 1:1500 SWARPO with 1:3000 RAMPO. After 5 washes with wash buffer followed by two washes with PBS, binding of antibodies was assessed. Bound anti-FLAG-PO, peroxidase-conjugated rabbit anti-mouse immunoglobulins (RAMPO, P0260, DAKOCytomation, Glostrup, Denmark) or peroxidase-coupled swine anti-rabbit immunoglobulins (SWARPO, P0217, DAKOCytomation) was visualized with tetramethylbenzidine (TMB, #45.01.20,/#45.014.01, Biosource, Nivelles, Belgium). The reaction was stopped after 5 minutes with 1% H2SO4 in H2O. Plates were read at 450 nm. Triplicates were averaged and standard deviations calculated. Background signals obtained with buffer-coated wells were subtracted (binding of primary antibody to empty wells), as well as background signals obtained with ligand-coated wells in which the chaperones were omitted (binding of primary and secondary antibody to coated ligands). Subsequently, sub-optimal concentrations of chaperones for binding to misfolded protein ligands are determined, and these concentrations are used for inhibition studies.
In a subsequent study we analysed whether BiP interacts directly with the crossbeta structure, by performing ELISA binding studies with a fixed sub-optimal concentration of BiP and concentration series of crossbeta binding compounds. The results are depicted in FIGS. 12, 13 and Table 7. Binding of BiP without added crossbeta binding compounds was set to 100%.

[3] = molecular target: T2, Escherichia coli HSP70 family member DnaK (Escherichia coli, UniProt P0A6Y8); test: ELISA: binding of DnaK to immobilized (misfolded) protein ligands
T2 construct: purchased Stressgen (Ann Arbor, Mich., USA) SPP-630
Protocol: Recombinant Escherichia coli (E. coli) DnaK was purchased from Stressgen (Ann Arbor, Mich., USA; SPP-630). For the binding studies first lot B502468 (100 μg, lot A) and then lot 05240609 (200 μg, lot B) was used.
as §1

T1 sequence (P11021 19-654): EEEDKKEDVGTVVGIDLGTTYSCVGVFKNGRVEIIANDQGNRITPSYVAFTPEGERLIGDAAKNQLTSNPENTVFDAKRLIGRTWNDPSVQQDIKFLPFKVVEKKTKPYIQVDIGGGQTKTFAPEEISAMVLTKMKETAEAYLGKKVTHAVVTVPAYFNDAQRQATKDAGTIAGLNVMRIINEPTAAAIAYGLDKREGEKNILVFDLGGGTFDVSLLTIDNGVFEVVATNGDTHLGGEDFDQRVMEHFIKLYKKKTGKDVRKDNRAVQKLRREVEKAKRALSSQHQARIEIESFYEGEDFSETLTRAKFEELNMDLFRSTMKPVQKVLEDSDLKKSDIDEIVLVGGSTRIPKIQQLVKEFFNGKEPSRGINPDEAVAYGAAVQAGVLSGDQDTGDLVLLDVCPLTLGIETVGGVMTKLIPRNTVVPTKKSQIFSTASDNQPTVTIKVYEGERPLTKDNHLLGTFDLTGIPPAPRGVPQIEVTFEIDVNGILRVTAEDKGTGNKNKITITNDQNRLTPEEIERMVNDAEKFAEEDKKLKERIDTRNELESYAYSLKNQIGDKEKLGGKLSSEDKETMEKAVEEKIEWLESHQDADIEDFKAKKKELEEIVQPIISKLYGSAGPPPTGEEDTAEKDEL
T2 sequence (P0A6Y8 whole entry): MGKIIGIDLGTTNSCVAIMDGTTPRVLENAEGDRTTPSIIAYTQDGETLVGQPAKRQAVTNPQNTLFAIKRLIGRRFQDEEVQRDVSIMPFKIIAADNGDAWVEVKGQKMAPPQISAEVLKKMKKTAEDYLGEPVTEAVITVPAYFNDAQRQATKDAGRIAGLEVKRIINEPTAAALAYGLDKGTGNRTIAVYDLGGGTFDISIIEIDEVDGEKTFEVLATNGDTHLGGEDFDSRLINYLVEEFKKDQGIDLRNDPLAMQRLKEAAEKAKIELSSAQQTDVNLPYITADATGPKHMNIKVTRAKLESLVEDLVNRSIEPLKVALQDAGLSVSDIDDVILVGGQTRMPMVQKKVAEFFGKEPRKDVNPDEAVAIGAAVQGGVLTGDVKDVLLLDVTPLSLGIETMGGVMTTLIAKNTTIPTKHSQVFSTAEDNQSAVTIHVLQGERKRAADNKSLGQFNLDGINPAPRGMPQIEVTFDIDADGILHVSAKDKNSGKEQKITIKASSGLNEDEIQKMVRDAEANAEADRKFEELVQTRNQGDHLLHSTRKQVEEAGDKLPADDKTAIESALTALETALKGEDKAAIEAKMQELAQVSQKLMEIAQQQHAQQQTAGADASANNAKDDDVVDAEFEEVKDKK

Substance | Binding of concentration series of BiP to coated ligand (human BiP [1]) | Influence of Congo red on interaction of BiP with misfolded protein (human BiP [2]) | Influence of ThS on interaction of BiP with misfolded protein (human BiP [2]) | Influence of ThT on interaction of BiP with misfolded protein (human BiP [2]) | Binding of concentration series of DnaK to coated ligand [3] | Influence on interaction of BiP with misfolded proteins comprising crossbeta structure (summary in words) (human BiP [2]; BiP binding without compound set to 100%)
Aβ1-40: amyloid-β 1-40 peptide coated in Example 7 | has been established | – | – | – | – | –
FWGLWPWE [6BB11] | has been established | ↓ (a ↓ sign refers to inhibited abolished binding of BiP) | ↓ (a ↓ sign refers to inhibited abolished binding of BiP) | ↓ (a ↓ sign refers to inhibited abolished binding of BiP) | did not bind | –
KRLEVDIDIK [FP10, synthetic fibrin peptide without crossbeta structure (negative control)] | did not bind | – | – | – | – | –
LFWPFEWI [6BB9] | has been established | ↓ (a ↓ sign refers to inhibited abolished binding of BiP) | ↓ (a ↓ sign refers to inhibited abolished binding of BiP) | ↓ (a ↓ sign refers to inhibited abolished binding of BiP) | – | –
RRRAA [6BB13] | no BiP binding was observed | – | – | – | did not bind | –
Thioflavin S [ThS] | – | – | – | – | – | can either potentiate BiP binding, or inhibit
YVDRFIGW [6BB8] | no BiP binding was observed | – | – | – | did not bind | –
thrombin | did not bind | – | – | – | – | –
